The target of test [1] is T1, cynomolgus monkey NaPi2b (cynomolgus monkey, UniProt O95436 1-690 (human entry)).
T1 construct: Transiently expressed on HEK293-6e cells; also called Cyno NaPi2b
T1 chain: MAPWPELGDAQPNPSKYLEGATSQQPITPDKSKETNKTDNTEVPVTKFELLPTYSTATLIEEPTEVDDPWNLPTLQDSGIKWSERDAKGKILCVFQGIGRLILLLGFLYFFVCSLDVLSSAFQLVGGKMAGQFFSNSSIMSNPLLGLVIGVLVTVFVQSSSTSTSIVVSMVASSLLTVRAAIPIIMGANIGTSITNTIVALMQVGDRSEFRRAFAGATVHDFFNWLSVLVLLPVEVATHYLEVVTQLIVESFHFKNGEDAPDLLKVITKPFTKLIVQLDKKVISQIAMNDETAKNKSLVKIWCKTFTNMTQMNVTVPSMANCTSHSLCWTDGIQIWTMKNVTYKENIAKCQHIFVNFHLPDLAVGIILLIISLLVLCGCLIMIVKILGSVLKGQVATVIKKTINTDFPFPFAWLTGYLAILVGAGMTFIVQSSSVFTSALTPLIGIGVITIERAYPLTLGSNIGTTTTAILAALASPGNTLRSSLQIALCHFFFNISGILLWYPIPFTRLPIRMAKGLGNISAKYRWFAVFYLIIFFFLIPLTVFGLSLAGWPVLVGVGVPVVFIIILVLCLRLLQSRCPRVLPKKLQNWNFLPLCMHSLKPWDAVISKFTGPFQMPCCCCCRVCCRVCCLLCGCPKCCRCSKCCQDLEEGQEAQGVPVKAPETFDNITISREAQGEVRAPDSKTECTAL
Nature of the test: flow cytometry, HEK293-6e cells transfected with cynomolgus NaPi2b. Here is the method: (§1) The binding cross-reactivity of humanized antibody variant v29456 to human, cynomolgus and mouse NaPi2b was assessed by flow cytometry using HEK293-6e transfected cells.
(§2) Briefly, HEK293-6e cells were transfected for ˜24 hours to transiently express human NaPi2b, cynomolgus or mouse NaPi2b, at 1 μg of DNA per 1 million cells. Following transfection, 50,000 cells per well were seeded in V-bottom 96-well plates and incubated with 200 nM of primary antibody for 18-24 hours at 4° C. to prevent internalization. Post-incubation, cells were washed and stained with anti-Human IgG Fc AF647 conjugate (Jackson Immuno Research Labs, West Grove, PA, Cat. No. 109-605-098, Lot. No. 124868) at 4° C. for 1 hour. Following staining and washing, fluorescence was detected by flow cytometry on BD LSRFortessa™ Cell Analyzer (BD Biosciences, Franklin Lake, NJ) with 10,000 minimum events collected per well. The AF647/APC-A GeoMean (fluorescence signal geometric mean, proportional to anti-Human AF647 binding) was calculated for the live singlet cell population for each primary antibody using FlowJo™ v8 software (BD Biosciences, Franklin Lake, NJ). The Bmax and Kd of each primary antibody were calculated using GraphPad Prism Version 9 (GraphPad Software, San Diego, CA)
For orientation: In flow cytometry, cells or beads pass a laser one at a time.

The target of test [2] is T2, human sodium-dependent phosphate transporter 2B (NaPi2b) (human, UniProt O95436 1-690).
T2 construct: UniProt ID is given as 095436 [sic]; also called hNaPi2b; Hu NaPi2b
T2 sequence: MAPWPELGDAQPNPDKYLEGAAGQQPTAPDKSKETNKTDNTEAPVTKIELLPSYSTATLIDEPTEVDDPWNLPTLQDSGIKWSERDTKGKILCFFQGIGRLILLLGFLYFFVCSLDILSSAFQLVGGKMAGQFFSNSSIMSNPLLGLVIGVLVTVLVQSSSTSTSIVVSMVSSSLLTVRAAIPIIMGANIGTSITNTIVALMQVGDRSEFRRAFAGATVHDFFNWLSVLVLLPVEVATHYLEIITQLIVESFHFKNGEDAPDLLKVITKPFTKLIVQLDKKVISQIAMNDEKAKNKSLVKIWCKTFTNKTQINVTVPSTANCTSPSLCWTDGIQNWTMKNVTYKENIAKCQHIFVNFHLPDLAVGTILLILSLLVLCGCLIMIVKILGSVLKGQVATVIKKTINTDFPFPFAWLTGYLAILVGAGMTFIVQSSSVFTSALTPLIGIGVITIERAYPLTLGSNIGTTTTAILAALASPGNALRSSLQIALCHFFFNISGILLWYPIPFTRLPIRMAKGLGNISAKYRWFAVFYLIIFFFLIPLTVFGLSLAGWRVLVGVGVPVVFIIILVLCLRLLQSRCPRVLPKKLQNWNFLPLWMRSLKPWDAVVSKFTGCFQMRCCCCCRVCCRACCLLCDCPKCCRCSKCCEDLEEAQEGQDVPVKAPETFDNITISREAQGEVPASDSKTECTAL
In words: flow cytometry, TOV-21G cells (endogenous NaPi2b); apparent Kd. Here is the method:
Briefly, cells were seeded at 50,000 cells/well in conical-bottom 96-well plates and treated with test antibody for 24 hours at 4° C. to prevent internalization. […] Following incubation, cells were washed and stained with anti-Human IgG Fc AF647 conjugate (Jackson Immuno Research Labs, West Grove, PA; Cat. No. 109-605-098) at 4° C. for 30 min. Following incubation and washing, fluorescence was detected by flow cytometry on a BD LSRFortessa™ Cell Analyzer (BD Biosciences, Franklin Lake, NJ) with 1,000 minimum events collected per well. The AF647/APC-A GeoMean (fluorescence signal geometric mean, proportional to anti-Human AF647 binding) was calculated for the live cell population using FlowJo™ Version 10.8.1 (BD Biosciences, Franklin Lake, NJ) and plotted for each test antibody using GraphPad Prism Version 9 (GraphPad Software, San Diego, CA).
The ability of the humanized antibody variants v38591 and v29456 to bind to NaPi2b expressed on cells was assessed on endogenous NaPi2b-expressing tumor cell lines IGROV-1 (ovarian adenocarcinoma) and TOV-21G (ovarian carcinoma) by flow cytometry.
Cellular binding was performed according to methods described in Example 13.

For test [3], the target named is T2, human sodium-dependent phosphate …. In words: flow cytometry, HCC-78 cells (endogenous NaPi2b). Here is the method: as §2
The ability of ADCs to bind to cells expressing NaPi2b was assessed. […] Binding to endogenous high NaPi2b-expressing cell lines IGROV-1 and HCC-78 was assessed by flow cytometry according to methods described in Example 5.

The target in test [4] is T1, cynomolgus monkey NaPi2b. In words: flow cytometry, HEK293-6e cells transfected with cynomolgus NaPi2b; apparent Kd. Here is the method:
as §1, §2

The target in test [5] is T2, human sodium-dependent phosphate …. Nature of the test: flow cytometry, IGROV-1 cells (endogenous NaPi2b), 24 h at 4 °C. A digest of the protocol: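 IGROV-1 cells were incubated with test antibody for 24 hours at 4° C to prevent internalization, then stained with anti-human IgG Fc AF647 for 30 min at 4° C. AF647 geometric mean fluorescence of live cells was measured by flow cytometry and plotted per antibody.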

B1: v29456 humanized anti-NaPi2b antibody (H1L2) (antibody, human IgG1, kappa)
heavy: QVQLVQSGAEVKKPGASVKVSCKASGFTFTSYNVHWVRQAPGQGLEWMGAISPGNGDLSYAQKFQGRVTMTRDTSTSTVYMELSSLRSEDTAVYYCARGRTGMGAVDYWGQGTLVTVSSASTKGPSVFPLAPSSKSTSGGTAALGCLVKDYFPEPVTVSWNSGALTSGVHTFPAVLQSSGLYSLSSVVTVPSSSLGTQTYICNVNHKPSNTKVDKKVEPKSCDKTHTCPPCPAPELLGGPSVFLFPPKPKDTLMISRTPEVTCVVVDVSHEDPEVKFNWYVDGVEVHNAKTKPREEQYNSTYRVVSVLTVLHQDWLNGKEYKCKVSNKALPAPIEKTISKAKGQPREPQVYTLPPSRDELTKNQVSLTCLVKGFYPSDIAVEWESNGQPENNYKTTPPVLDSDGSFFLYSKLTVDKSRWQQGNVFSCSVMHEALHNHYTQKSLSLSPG
light: DVQMTQSPSSLSASVGDRVTITCRASQDVYSYLNWYQQKPGKAVKLLIYYTSRLQSGVPSRFSGSGSGTDYTLTISSLQPEDFATYYCQQYNIFPWTFGQGTKLEIKRTVAAPSVFIFPPSDEQLKSGTASVVCLLNNFYPREAKVQWKVDNALQSGNSQESVTEQDSKDSTYSLSSTLTLSKADYEKHKVYACEVTHQGLSSPVTKSFNRGEC
As to B1, in test [1], the “Bmax (APC-A GeoMean)” value stood at 2010 APC-A GeoMean, the “fold lower apparent Kd than v18992 (MX35)” value was 10 fold and the “fold lower apparent Kd than v18993 (lifastuzumab)” value was 2 fold. The Kd in test [2] was 0.6 nM. In addition, the Bmax in test [3] was 21800. The Kd in test [4] came out at 3.2 nM. Further, in test [5], the “Bmax (MFI)” value was determined as 40900 MFI.

For the origin of these results see US20250277030A1 (Zymeworks, published 2025).
